The nanobody polyreactivity screen of Harvey et al. (2022)

Experiment: yeast display, Sf9 membrane polyspecificity reagent, FACS + sequencing; frameworks hold sequencing errors
Outline: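 Sorting gates, low and high (top ~1%), were placed on anti-HA fluorescence to track expression and on streptavidin fluorescence to track reagent binding. A clone's polyreactivity label is taken from the gate it came out of. The reagent was 10% biotinylated, detergent-solubilized Sf9 membrane, applied for 1 hour at 4 °C to galactose-induced yeast display cells.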

| Sequence | polyreactivity (PSR sort gate) |
| --- | --- |
| QVQLVESGGGLVQAGGSLRLSCPASGSTLAWYTMGWYRQAPGKEREFVAVITGSGGSTFYADSVKGRFTISRDNAKNTVYLQMNSLKPEDTAVYYCAADYLYYVTQHRRFHLDYWGQGTQVTVSS | low polyreactivity |
| QVQLVESGGGLVQAGGSLRLSCPASGSTLVYNDMGWYRQAPGKEREFVAAIRSNDGSTYYADSVKGRFTISRDNAKNTVYLQMNSLKPEDTAVYYCNKDVWDGYDWPEFDYWGQGTQVTVSS | low polyreactivity |
| QVQLVESGGGLVQAGGSLRLSCPASGSTQHYYVKAWYRQAQGKERELVAAITWSGVSTYYADSVKGRFTISRDNAKNTVYLQMNSLKPEDTAVYYCAKRIFTSARLNYWGKGTQVTVSS | high polyreactivity |
| QVQLVESGGGLVQAGGSLRLSCSASGFIFGTNTMGWYRQAPGKEWELVAAITSVGSTNYADSVKGRFTISRDNAKNTVYLQMNSLKPEDTAVYYCPATLYYQYGGDYWGQGTQVTVSS | low polyreactivity |
| QVQLVESGGGLVQAGGSLRLSCSASGFIFLDYAMGLYRQAPGKERELVAAISSRGARTYYADSVKGRFTISRDNAKNTVYLQMNSLKPEDTAVYYCAARGPHDRYGYWGQGNQVTVSS | high polyreactivity |
| QVQLVESGGGLVQAGGSLRLSCSASGFTFSWYAMGWYRQAPGKDRELVAAINADGGTTYYADSVKGRFTISRDNAKNTVYLQMNSLKPEDTAVYYCADELSVDKYDYWGQGTQVTVSS | low polyreactivity |
| QVQLVESGGGLVQAGGSLRLSCSASGFTFYVNAMGWYRQAPGKERELVAAITDDGDSTYYADSVKGRFTISRDNAKNTVYLQMNSLKPEDTAVYYCKTVYGPDLDGTEYDYWGQGTQVTVSS | low polyreactivity |
| QVQLVESGGGLVQAGGSLRLSCSASGIIYKSYAMGWYRQAPGKERELVAAISGGGDTYYADSVKGRFTISRDNAKNTVYLQMNSLKPEDTAVYYCNTDGSQGTIIAIFVKYDYWGQGTQVTVSS | low polyreactivity |
| QVQLVESGGGLVQAGGSLRLSCSASGITFKRYAMGWYRQAPGTERELVAAITISACSTYYADSVKGRFTNSRDIAKNTVYLQMNSLKPEVTAVYYCAAVSYGSWYYYWGQGTHVTVSS | high polyreactivity |
| QVQLVESGGGLVQAGGSLRLSCSASGITFTSYAMGWYRQAPGKERELVASIDSDDSTNYADSVKGRFTISLDNAKNTVYLQMNSLKPEDTAVYYCNADYLTVSWSIPEHVTVRLMYYWGQGTQVTVSS | low polyreactivity |
| QVQLVESGGGLVQAGGSLRLSCSASGITFYRYVMGWYRQAPGKERELVAAISRGGGSTYYADSVKGRFTISRDNAKNTVYLQMNSLKPEDTAVYYCAARAWVQGGIGGQSWFDYWGQGTQVTVSS | high polyreactivity |
| QVQLVESGGGLVQAGGSLRLSCSASGLIFSSYAMGWYRPAPGKERELVAAISRGGSTNYADSVKGRFTISRDNAKNTVYLQMNSLKPEDTAVYYCNDYSWVNRYDYWGQGTQVTVSA | high polyreactivity |
| QVQLVESGGGLVQAGGSLRLSCSASGLIFYDYDMGWYRQAPGKERELVAAISNDASTYYADSVKGRFTISRDNGKNTVYFQMNSLKPEDTAVYYCAAEPYVFGLSSKPFWYNYWGQGTQVTVSS | low polyreactivity |
| QVQLVESGGGLVQAGGSLRLSCSASGRIFDKYTMGWYRQAPGKERELVATITRGGVSTYYADSVKGRFTISRDNAKNTVYLQMTSLKPEDTAVYYCNAVWRLRVRYGYWGQGTQVTVSS | high polyreactivity |
| QVQLVESGGGLVQAGGSLRLSCSASGRIFSLYAMGWYRQAPGKESELVAAITWSSGSTYYADSVKGRFTISRDNAKNTVYLQMNSLKPEDTAVYYCDARVFTLLGYSYEYWGEGTQVTVSS | low polyreactivity |
| QVQLVESGGGLVQAGGSLRLSCSASGRIFVDNALGWYRQAPGKERELVATITSTGSTNYADSEKGRFTISRDNGMNTFYLQMNSLKPEDTAFYYCNADGIMQDYDYWGQVTQVTVSS | low polyreactivity |
| QVQLVESGGGLVQAGGSLRLSCSASGRILRQYAMGWSRQAPGKERELVAAITSSGGSTYYADSVKGRFTISRDNAKNTVYLQMNSLKPEDTAVYYCNARLRGAKYDYLGQGTQVTVSS | high polyreactivity |
| QVQLVESGGGLVQAGGSLRLSCSASGRTFLGYAMGWYRQPPGKERELVAAISWDGTSTYYADSVKGRFTISRDNAKNNVYLQMNSLKTEDTAVYYCAAQYSYRMDYWGQGTQVTVSS | low polyreactivity |
| QVQLVESGGGLVQAGGSLRLSCSASGRTFRGNAMGWSRHAPGKEREMVAAITSSGGSTYYADSVKGRFTISRDNAKNNVHLKMNSLKPEDTAVYYCAKTYVVPQYDYDYWGQGTQVTVSS | low polyreactivity |
| QVQLVESGGGLVQAGGSLRLSCSASGRTFRKYAMGWYRQPPGKESELVAAISWSGGSTYYANSVKGRFTISRDNAKNTVYLQMNSLKPEDTAVYYCAAVPVHTGSLYWGFTTGYDYWGQGTQVTVSS | low polyreactivity |
| QVQLVESGGGLVQAGGSLRLSCSASGRTFRSNAMGWYRQAPGKEREFVAAIRSRGGSTYYADSVKGRFTISRDNAKNSVYLQMNSLKPEDTAVYYCADKHGSTSHDSWGQGTQVSVSS | high polyreactivity |
| QVQLVESGGGLVQAGGSLRLSCSASGRTFRSYTMGWYRQAPGKERELVAAINRGDRTYADSVKGRFTISRDNAKNTVYLQMNSLKPEDTAVYYCNARYYTHRYDYWGQGTQVTVSS | high polyreactivity |

| Sequence | polyreactivity (PSR sort gate) |
| --- | --- |
| QVQLVESGGGLVQAGGSLRLSCSASGRTFRWYTMGWYRQAPGKEREFVAAITWSGSSTDYADSVKGRFTISRDNAKNTVYFQMNSLKPEDTAVYYCAAENRRRRDDYWGQGTQVTVSS | high polyreactivity |
| QVQLVESGGGLVQAGGSLRLSCSASGRTFSVYAMGSYRQAPGKERELVAGITSGGSTNYADSVKGRFTISRDNAKNTVYLQMNSLKPEDTAVYYCDAENVYAGFGFVSIVDYWVQGTQVTVSS | low polyreactivity |
| QVQLVESGGGLVQAGGSLRLSCSASGRTFYHYTMGRYIQAPGKERELVAAITSGGSTYYADSVKGRFPISRDNAKNTVYLQMNSLKPEDTAVYYCARVRPLYHYSRYDYWGQGTQVTVSS | high polyreactivity |
| QVQLVESGGGLVQAGGSLRLSCSASGRTFYRNAMGWYRQSPGKESEFVAVISVSGGSTYYADSVKGRFTISRDNAKNTVYLQMNSLKPEDTAVYYCAADEYYTFSCFELRRMDYWGQGTQVTVSS | low polyreactivity |
| QVQLVESGGGLVQAGGSLRLSCSASGRTLTRYTMGWYRKAPGKERELVAGITRSGGSTYYADSVNGRFTISRDNAKNTVYLKMNSLKPEDTAVYYCAVKQRDKFAGGRNDYWGQGTQVTVSS | high polyreactivity |
| QVQLVESGGGLVQAGGSLRLSCSASGSIFFKYAMGWYRQAPGKERELVASITSRGGTTYYADSVKGRFTISRDNAKNTVYLQMNSLKPEDTAVYYCAALRRSSFGYWGQGTQVTVSS | high polyreactivity |
| QVQLVESGGGLVQAGGSLRLSCSASGSIFNYYAMGWYRQPPGKERELVAAISYRTGSTYYADSVKGRFTISRDNSKNTVYLQMNSLKPEDTSVYYCAADTRYGYGYWGQGTQVTVSS | high polyreactivity |
| QVQLVESGGGLVQAGGSLRLSCSASGSIFPYYSMGWYRQAPGQERQLVAAISYSGGRTRYADSVKGRFTISRDNAKNTVYLQMNSLKPEDTAVYYCAVVDRHQPYGRQLDYWGQGTQVTVSS | low polyreactivity |
| QVQLVESGGGLVQAGGSLRLSCSASGSIFRGYTMGLYRQAPGKERELVAGITLRGVSTYYADSVKGRFTISRDNAKNTVYVQMNSLKPEDTAVYYGAVDYGRAVQGDSITYDFNYWGQGTQVTVSS | low polyreactivity |
| QVQLVESGGGLVQAGGSLRLSCSASGSIFRRYAMGWYRQAPGKVRELVAVITTDGSTYYADSVKGRFTISRDNAKNTVYLQMHSLKPEDTAVYYCAAEDYVIGYSGYDYWGQGTQVTVSS | low polyreactivity |
| QVQLVESGGGLVQAGGSLRLSCSASGSIFSENTMGGYRQAPGKKRELVADITSGGSTNYADSVKGRFTISRDNAKNTVYLQMNSLKPEDTAVYYCAADYNGEYDYWGQGTQVTVSS | low polyreactivity |
| QVQLVESGGGLVQAGGSLRLSCSASGSIIVSYTMGWYRQAPGKERELVAAISGGGASTYYADSVKGRFTISRDNAKNTVYLQMNSLKPEDTAVYYCNADGYYDMDYCGQGTQVTVSS | low polyreactivity |
| QVQLVESGGGLVQAGGSLRLSCSASGSILSAYDMGWYRQATGKERELVAAIDSSGGSTYYADSVKGRFTISRDNAKNTVYLQMNSLKPEDTAVYYCAATSLAGYYKFDYWGQGSQVTVSS | low polyreactivity |
| QVQLVESGGGLVQAGGSLRLSCSASGSTFDVYAMGRYRQAPGKERELVAAISRSGGSTYYADSVKGRFTISRDNAKNTVYLQMNSLKPEDTAVYYCAAEVGIVDYDYWGQGTQVTVSS | low polyreactivity |
| QVQLVESGGGLVQAGGSLRLSCSASGSTFFIYAMGWYRQAPWKERELVAAIRSGGTYYADSVKGRFTISRDNAKITVYLQMKSLKPEDTAVYYCAARTRGFRYYYWGQGTQVTVSS | high polyreactivity |
| QVQLVESGGGLVQAGGSLRLSCSASGSTFFWNAMGWYRQAPGKESEFVAAISSSSGSTYYADSVKGRFTISRDNAKNTVYLQMNSLKPEDTAVYYCAARPWGNVFDSAVSYDYWGQGTQVTVSS | low polyreactivity |
| QVQLVESGGGLVQAGGSLRLSCSASGSTFNVNAMGWYRQAPGKERELVAAIRTSGGSTYYADSVKGRFTISRDNAKNTVYLQMNSLKQEDTAVYYCNARVGSSSSRYYYWGQGTQVTVSS | low polyreactivity |
| QVQLVESGGGLVQAGGSLRLSCSASGSTFRIYAMGWYRQAPGKERELVAAISWSSGSTYYADSVKGRFTISRDNAKKSVYLQMNSLKPEDTAVYYCATYARRSGYYYWGQGSQVTVSS | high polyreactivity |
| QVQLVESGGGLVQAGGSLRLSCSASGSTFVTNVIGWYRQAPGKERELVAAISYSGGNTYYEDSVKGRFTISRDNAKNTVYLQMNSLKPEDTAVYYCAASYKPFKKMGYWGQGTQVTVSS | high polyreactivity |
| QVQLVESGGGLVQAGGSLRLSCSASGSTFYVYAMGWYRQAPGKERELVAAITDSGGSTYADSVKGRFTISRDNAKNTVYLQMNSLKPEDTAVYADSTYNWYYYYWGQGTQVTVSS | low polyreactivity |
| QVQLVESGGGLVQAGGSLRLSCSPSGSIFVSYTMGWYRQAPGKERELVAAISSGGSTYYADSVKGRFTITRDNAKNTVYLQMNSLKPEDTAVYYCARRLTREYDYWGQGTQVTVSS | low polyreactivity |
